Measurements reported in publication PMC10682464, “The structural basis for light acclimation in phycobilisome light harvesting systems systems in Porphyridium purpureum” (Communications Biology, 2023).

Legend:
[1] = biological target: T1, phycoerythrin (PE) β subunit of the Porphyridium purpureum phycobilisome (Porphyridium purpureum (endogenous in …, UniProt P11393 1-177, covalently attached open tetrapyrrole chromophores (sites not given))); experiment: cryo-EM structure; intact ML-PBS isolated from P. purpureum on a sucrose gradient; 1.5 mg/mL, diluted on the grid with 50 mM Tris pH 8.0, 16 °C; overall resolution 3.04 Å, C2 symmetry; conditions: both partners purified
T1 construct: phycoerythrin beta subunit, Porphyridium purpureum (UTEX 2757); chain of the ML-PBS model PDB 7EZX, which was built from LL-PBS PDB 6KGX; also called β^PE; PE subunit

[2] = biological target: the molecule itself; experiment: as above

binding result [1]	Binder	stoichiometry N [2]
binds	phycoerythrin (PE) α subunit of the Porphyridium purpureum phycobilisome (natural protein, UniProt P11392 1-164, looked up, covalently attached open tetrapyrrole chromophores (sites not given), phycoerythrin alpha subunit, Porphyridium purpureum (UTEX 2757); chain of the ML-PBS model PDB 7EZX, which was built from LL-PBS PDB 6KGX; also called α^PE; PE subunit) MKSVITTVVSAADAAGRFPSNSDLESIQGNIQRSAARLEAAEKLAGNHEAVVKEAGDACFAKYAYLKNPGEAGENQEKINKCYRDVDHYMRLVNYDLVVGGTGPLDEWGIAGAREVYRTLNLPTSAYVASIAYTRDRLCVPRDMSAQAGVEFSAYLDYLINALS	
	αβ^PE monomer (phycoerythrin α and β subunits) of the Porphyridium purpureum phycobilisome (complex, covalently attached open tetrapyrrole chromophores (sites not given) | covalently attached open tetrapyrrole chromophores (sites not given), phycoerythrin alpha subunit, Porphyridium purpureum; as the chain of m1; phycoerythrin beta subunit, Porphyridium purpureum; as the chain of m2; The introduction says that (αβ) monomers assemble into trimers and hexamers; also called (αβ) monomer) chain 1: MKSVITTVVSAADAAGRFPSNSDLESIQGNIQRSAARLEAAEKLAGNHEAVVKEAGDACFAKYAYLKNPGEAGENQEKINKCYRDVDHYMRLVNYDLVVGGTGPLDEWGIAGAREVYRTLNLPTSAYVASIAYTRDRLCVPRDMSAQAGVEFSAYLDYLINALS chain 2: MLDAFSRVVVNSDAKAAYVGGSDLQALKSFIADGNKRLDAVNSIVSNASCMVSDAVSGMICENPGLISPGGNCYTNRRMAACLRDGEIILRYVSYALLAGDASVLEDRCLNGLKETYIALGVPTNSSIRAVSIMKAQAVAFITNTATERKMSFAAGDCTSLASEVASYFDRVGAAIS	6
